Reference: PMC5815892 (Clinical cancer research : an official journal of the …, 2017)

What was measured:
[1] = molecular target: T1, free DSL-like peptide from human fibulin-3 (Thr25-Glu47) (Homo sapiens (Human).); assay: ELISA
T1 chain: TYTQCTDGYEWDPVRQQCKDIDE

[2] = molecular target: purified fibulin-3 (human) (Homo sapiens (Human)., UniProt Q12805); assay: SPR
Sequence of purified fibulin-3 (human) (Q12805 18-493): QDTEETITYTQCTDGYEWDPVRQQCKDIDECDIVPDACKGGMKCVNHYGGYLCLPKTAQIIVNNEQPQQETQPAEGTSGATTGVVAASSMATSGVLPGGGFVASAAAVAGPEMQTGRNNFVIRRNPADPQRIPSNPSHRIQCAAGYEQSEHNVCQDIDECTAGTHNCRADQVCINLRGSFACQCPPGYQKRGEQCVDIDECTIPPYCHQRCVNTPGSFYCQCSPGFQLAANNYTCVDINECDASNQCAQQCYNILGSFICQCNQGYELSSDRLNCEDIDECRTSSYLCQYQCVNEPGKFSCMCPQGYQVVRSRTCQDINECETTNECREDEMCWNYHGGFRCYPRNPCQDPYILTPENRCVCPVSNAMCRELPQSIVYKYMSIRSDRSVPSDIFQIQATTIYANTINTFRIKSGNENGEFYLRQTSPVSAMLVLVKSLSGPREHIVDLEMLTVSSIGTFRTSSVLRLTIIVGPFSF

B1: mAb428.2 (anti-fibulin-3 clone mAb428.2.3C11.H11.G3) (antibody, V domains shown)
VH: QIQLVQSGPELKKPGETVKISCKASGYSFTTYGMSWVKQAPGKGLKWMGWINTYSGVPTYADDFKGRFAFFLETSASTAYLQINNLKNEDTATYFCARWVDYWGQGTTLTVSS
VL: DIKMTQSPSSMYASLGERVTITCKASQDIKSYLSWHQQKPWKSPKTLIYYATSLADGVPSRFSGSGSGQDYSLTISSLESDDTATYYCLQHGKSPYTFGGGTKLEIK
Q: Does B1 bind [1]?
A: binds

Q: What about the Kd [2] of the same binder?
A: 5 ± 1 nM
